Patent publication US11819553B2, “Glypican 3 antibodies and conjugates thereof” (Seagen Inc., priority 2018, dated 2023)

Molecular target: T1, hGPC3 (Homo sapiens, UniProt P51654)
T1 construct: endogenous in cells
Experiment: Competition binding assay on GPC3-positive cells (flow cytometry, AlexaFluor-488 labeled mGPC3-1)
Details: Table 6; competition with labeled mGPC3-1 on GPC3-positive cells; read-out: hGPC3 Binding of hGPC3-1 Antibody Variants EC50
Experimental: One hundred thousand GPC3-positive cells were transferred to 96-well plates and incubated for 1 hour on ice with 3-5 nM AlexaFluor-488 labeled mGPC3-1 and increasing concentrations (from 10 pM to 2 uM) of unlabeled humanized or murine GPC3-1 mAb. Cells were centrifuged, washed 3 times with PBS, and resuspended in 125 μL of a PBS+2% FBS solution. Fluorescence was analyzed using a flow cytometer, and the percent of saturated fluorescent signal was used to determine percent labeled GPC3-1 mAb bound. The EC50 was extrapolated by fitting the data to a sigmoidal dose-response curve with variable slope.

T1 sequence (P51654 25-554): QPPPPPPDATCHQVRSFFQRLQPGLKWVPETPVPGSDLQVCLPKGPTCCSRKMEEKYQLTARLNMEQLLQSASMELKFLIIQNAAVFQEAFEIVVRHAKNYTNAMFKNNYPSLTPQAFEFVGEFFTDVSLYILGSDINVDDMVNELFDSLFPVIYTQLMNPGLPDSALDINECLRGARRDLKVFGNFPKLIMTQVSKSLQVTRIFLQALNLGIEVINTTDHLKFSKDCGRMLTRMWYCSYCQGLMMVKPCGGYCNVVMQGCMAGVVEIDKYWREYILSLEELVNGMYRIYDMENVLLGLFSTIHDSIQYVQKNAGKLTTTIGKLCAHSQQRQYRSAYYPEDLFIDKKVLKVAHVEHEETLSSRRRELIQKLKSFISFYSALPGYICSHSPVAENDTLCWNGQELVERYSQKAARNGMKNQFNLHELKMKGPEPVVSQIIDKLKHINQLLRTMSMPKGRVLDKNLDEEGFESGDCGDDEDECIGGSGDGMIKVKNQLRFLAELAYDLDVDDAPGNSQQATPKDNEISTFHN

B1: hGPC3-1 HALA: humanized GPC3-1 antibody with heavy chain variable region vHA and light chain variable region vLA (antibody, V domains shown)
VH: QVQLVQSGAEVKKPGASVKVSCKASGYTFTDYEMHWVRQAPGQGLEWIGGIDPETGGTAYNQKFKGRATLTADTSTSTAYMELRSLRSDDTAVYYCARYYSFAYWGQGTLVTVSS
VL: DVVMTQSPLSLPVTLGQPASISCRSSQSIVHSNGNTYLQWFQQRPGQSPRRLIYKVSNRFSGVPDRFSGSGSGTDFTLKISRVEAEDVGVYYCFQVSHVPYTFGQGTKLEIK
EC50: > 300 nM
